From the supplement of paper PMC10567573

B1: PPFIA4 (parent)
chain: YAGNLHESGVHGALLALDENFDHN
B2: ANKRD40 (parent)
chain: VCCCELGVNPDQVEKIRKLPNTLL

Variants of: B1
Experiment: protein stability index of a GFP-peptide fusion (GPS, HEK-293T) (PSI 1-6); higher = more stable
Details: c terminus: a fixed tail appended
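Note: lentivirally expressed fusions sorted by FACS into six bins by GFP to DsRed ratio, PSI derived from sequencing read proportions per bin multiplied by bin number.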

Row | Variant | protein stability index
1 | YAGNLHESGVHGALLALDENFDAN | 2.18
2 | YAGNLHESGVHGALLALDENFDNN | 2.63
3 | YAGNLHESGVHGALLALDENFDVN | 2.63
4 | YAGNLHESGVHGALLALDENFDLN | 2.34
5 | YAGNLHESGVHGALLALDENFDQN | 2.22
6 | YAGNLHESGVHGALLALDENFDDN | 2.58
7 | YAGNLHESGVHGALLALDENFDIN | 2.23
8 | YAGNLHESGVHGALLALDENFDWN | 2.07
9 | YAGNLHESGVHGALLALDENFDYN | 2.43
10 | YAGNLHESGVHGALLALDENFDGN | 2.46
11 | YAGNLHESGVHGALLALDENFDKN | 2.53
12 | YAGNLHESGVHGALLALDENFDPN | 2.81
13 | YAGNLHESGVHGALLALDENFDEN | 2.25
14 | YAGNLHESGVHGALLALDENFDSN | 2.19
15 | YAGNLHESGVHGALLALDENFDFN | 2.12
16 | YAGNLHESGVHGALLALDENFDCN | 2.13
17 | YAGNLHESGVHGALLALDENFDRN | 2.47
18 | YAGNLHESGVHGALLALDENFDMN | 2.19
19 | YAGNLHESGVHGALLALDENFDTN | 2.61
20 | YAGNLHESGVHGALLALDENFDHV | 1.95
21 | YAGNLHESGVHGALLALDENFDHC | 2.58
22 | YAGNLHESGVHGALLALDENFDHR | 1.9
23 | YAGNLHESGVHGALLALDENFDHH | 1.9
24 | YAGNLHESGVHGALLALDENFDHL | 2.28
25 | YAGNLHESGVHGALLALDENFDHA | 2.69
26 | YAGNLHESGVHGALLALDENFDHP | 2.39
27 | YAGNLHESGVHGALLALDENFDHW | 2.01
28 | YAGNLHESGVHGALLALDENFDHT | 2.42

Row | Variant | protein stability index
29 | YAGNLHESGVHGALLALDENFDHK | 2.02
30 | YAGNLHESGVHGALLALDENFDHY | 2.47
31 | YAGNLHESGVHGALLALDENFDHG | 2.13
32 | YAGNLHESGVHGALLALDENFDHE | 3.49
33 | YAGNLHESGVHGALLALDENFDHD | 2.46
34 | YAGNLHESGVHGALLALDENFDHQ | 2.69
35 | YAGNLHESGVHGALLALDENFDHS | 2.41
36 | YAGNLHESGVHGALLALDENFDHM | 1.92
37 | YAGNLHESGVHGALLALDENFDHF | 2.01
38 | YAGNLHESGVHGALLALDENFDHI | 2.27
39 | YAGNLHESGVHGALLALDENFWHN | 2.41
40 | YAGNLHESGVHGALLALDENFRHN | 1.56
41 | YAGNLHESGVHGALLALDENFMHN | 2.3
42 | YAGNLHESGVHGALLALDENFVHN | 1.27
43 | YAGNLHESGVHGALLALDENFFHN | 2.01
44 | YAGNLHESGVHGALLALDENFTHN | 1.87
45 | YAGNLHESGVHGALLALDENFIHN | 2.11
46 | YAGNLHESGVHGALLALDENFHHN | 1.84
47 | YAGNLHESGVHGALLALDENFQHN | 2.2
48 | YAGNLHESGVHGALLALDENFEHN | 2.48
49 | YAGNLHESGVHGALLALDENFGHN | 2.4
50 | YAGNLHESGVHGALLALDENFLHN | 1.46
51 | YAGNLHESGVHGALLALDENFKHN | 2.37
52 | YAGNLHESGVHGALLALDENFPHN | 2.47
53 | YAGNLHESGVHGALLALDENFNHN | 1.99
54 | YAGNLHESGVHGALLALDENFSHN | 2.02
55 | YAGNLHESGVHGALLALDENFYHN | 2.49

Variants of: B2
Experiment: as above
Details: c terminus: a fixed tail appended

Row | Variant | protein stability index
56 | VCCCELWVNPDQVEKIRKLPNTLL | 1.51
57 | VCCCELMVNPDQVEKIRKLPNTLL | 1.7
58 | VCCCELCVNPDQVEKIRKLPNTLL | 2.6
59 | VCCCELHVNPDQVEKIRKLPNTLL | 2.45
60 | VCCCELPVNPDQVEKIRKLPNTLL | 1.76
61 | VCCCELDVNPDQVEKIRKLPNTLL | 1.96
62 | VCCCELTVNPDQVEKIRKLPNTLL | 2.85
63 | VCCCELEVNPDQVEKIRKLPNTLL | 2.13
64 | VCCCELIVNPDQVEKIRKLPNTLL | 2.45
65 | VCCCELKVNPDQVEKIRKLPNTLL | 2.42
66 | VCCCELRVNPDQVEKIRKLPNTLL | 1.78
67 | VCCCELYVNPDQVEKIRKLPNTLL | 1.88
68 | VCCCELAVNPDQVEKIRKLPNTLL | 2.02
69 | VCCCELQVNPDQVEKIRKLPNTLL | 2.02
70 | VCCCELSVNPDQVEKIRKLPNTLL | 1.72
71 | VCCCELLVNPDQVEKIRKLPNTLL | 2.3
72 | VCCCELNVNPDQVEKIRKLPNTLL | 1.43
73 | VCCCELFVNPDQVEKIRKLPNTLL | 2.27
74 | VCCCETGVNPDQVEKIRKLPNTLL | 2.13
75 | VCCCESGVNPDQVEKIRKLPNTLL | 2.68

Row | Variant | protein stability index
76 | VCCCEWGVNPDQVEKIRKLPNTLL | 1.66
77 | VCCCEHGVNPDQVEKIRKLPNTLL | 2.15
78 | VCCCEKGVNPDQVEKIRKLPNTLL | 3.1
79 | VCCCENGVNPDQVEKIRKLPNTLL | 2.47
80 | VCCCEFGVNPDQVEKIRKLPNTLL | 1.4
81 | VCCCEVGVNPDQVEKIRKLPNTLL | 2.2
82 | VCCCEEGVNPDQVEKIRKLPNTLL | 2.76
83 | VCCCEYGVNPDQVEKIRKLPNTLL | 1.87
84 | VCCCEMGVNPDQVEKIRKLPNTLL | 2.3
85 | VCCCEIGVNPDQVEKIRKLPNTLL | 1.8
86 | VCCCEDGVNPDQVEKIRKLPNTLL | 3.28
87 | VCCCEQGVNPDQVEKIRKLPNTLL | 3.27
88 | VCCCERGVNPDQVEKIRKLPNTLL | 2.3
89 | VCCCEGGVNPDQVEKIRKLPNTLL | 2.87
90 | VCCCEAGVNPDQVEKIRKLPNTLL | 2
91 | VCCCECGVNPDQVEKIRKLPNTLL | 2.06
92 | VYCCELGVNPDQVEKIRKLPNTLL | 2.6
93 | VACCELGVNPDQVEKIRKLPNTLL | 2.85
94 | VICCELGVNPDQVEKIRKLPNTLL | 1.62
